# Results as given in the supplement of paper PMC10065799, “High-throughput profiling of sequence recognition by tyrosine kinases and SH2 domains using bacterial peptide display” (eLife, 2023).
# Legend:
# Hck = Hck (UniProt P08631); assay: phosphorylation enrichment, bacterial display (enrichment ratio); higher = better substrate or ligand; peptides without Tyr show the background
# Fer (mouse) = assay: as above
# Jak2 = Jak2 (UniProt O60674); assay: as above
# EPHB2 = EPHB2 (UniProt P29323); assay: as above
# Fyn = Fyn (UniProt P06241); assay: as above
# Sequence of Fyn (P06241 whole entry, looked up): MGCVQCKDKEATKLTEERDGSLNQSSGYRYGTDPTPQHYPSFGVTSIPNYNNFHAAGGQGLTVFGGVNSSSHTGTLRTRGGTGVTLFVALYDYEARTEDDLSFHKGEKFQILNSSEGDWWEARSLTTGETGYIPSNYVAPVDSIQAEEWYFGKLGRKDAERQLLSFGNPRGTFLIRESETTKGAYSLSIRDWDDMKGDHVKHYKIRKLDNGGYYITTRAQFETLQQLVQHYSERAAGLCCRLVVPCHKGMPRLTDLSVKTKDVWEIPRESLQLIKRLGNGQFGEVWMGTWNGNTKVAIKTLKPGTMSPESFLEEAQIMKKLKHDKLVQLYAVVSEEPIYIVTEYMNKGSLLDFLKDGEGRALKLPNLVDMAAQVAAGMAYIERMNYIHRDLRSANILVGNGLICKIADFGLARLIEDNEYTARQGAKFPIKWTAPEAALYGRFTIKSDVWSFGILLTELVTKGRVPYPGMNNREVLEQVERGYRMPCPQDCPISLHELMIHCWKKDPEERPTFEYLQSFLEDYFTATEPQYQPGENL
# EPHB1 = EPHB1 (UniProt P54762); assay: as above
# Sequence of EPHB1 (P54762 whole entry, looked up): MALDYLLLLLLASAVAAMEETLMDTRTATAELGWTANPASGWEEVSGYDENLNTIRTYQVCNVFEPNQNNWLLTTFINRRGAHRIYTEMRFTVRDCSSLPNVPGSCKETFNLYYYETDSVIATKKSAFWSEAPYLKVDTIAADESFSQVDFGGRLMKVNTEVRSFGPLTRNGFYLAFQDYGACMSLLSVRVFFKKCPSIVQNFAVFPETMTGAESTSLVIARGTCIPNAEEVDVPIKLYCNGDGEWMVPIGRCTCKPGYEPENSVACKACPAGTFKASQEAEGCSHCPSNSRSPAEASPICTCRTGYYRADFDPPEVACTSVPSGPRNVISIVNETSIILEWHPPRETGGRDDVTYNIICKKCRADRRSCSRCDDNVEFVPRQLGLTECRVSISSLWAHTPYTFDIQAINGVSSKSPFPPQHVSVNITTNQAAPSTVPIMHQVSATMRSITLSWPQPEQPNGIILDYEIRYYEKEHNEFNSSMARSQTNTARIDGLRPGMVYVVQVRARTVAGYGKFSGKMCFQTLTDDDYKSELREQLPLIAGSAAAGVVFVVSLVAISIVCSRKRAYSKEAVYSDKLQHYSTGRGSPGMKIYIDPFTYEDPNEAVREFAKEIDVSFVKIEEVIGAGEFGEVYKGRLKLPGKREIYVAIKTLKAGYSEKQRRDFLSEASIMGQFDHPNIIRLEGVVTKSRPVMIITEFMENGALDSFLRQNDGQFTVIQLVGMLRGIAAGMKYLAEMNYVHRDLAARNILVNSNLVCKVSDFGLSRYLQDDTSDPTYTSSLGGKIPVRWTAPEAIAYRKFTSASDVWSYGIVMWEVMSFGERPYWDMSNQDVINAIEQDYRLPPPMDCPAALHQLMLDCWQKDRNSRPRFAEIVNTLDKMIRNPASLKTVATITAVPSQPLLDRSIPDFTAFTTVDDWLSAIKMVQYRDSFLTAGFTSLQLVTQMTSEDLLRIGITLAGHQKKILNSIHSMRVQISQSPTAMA
# FGFR3 = FGFR3 (UniProt P22607); assay: as above
# Sequence of FGFR3 (P22607 whole entry, looked up): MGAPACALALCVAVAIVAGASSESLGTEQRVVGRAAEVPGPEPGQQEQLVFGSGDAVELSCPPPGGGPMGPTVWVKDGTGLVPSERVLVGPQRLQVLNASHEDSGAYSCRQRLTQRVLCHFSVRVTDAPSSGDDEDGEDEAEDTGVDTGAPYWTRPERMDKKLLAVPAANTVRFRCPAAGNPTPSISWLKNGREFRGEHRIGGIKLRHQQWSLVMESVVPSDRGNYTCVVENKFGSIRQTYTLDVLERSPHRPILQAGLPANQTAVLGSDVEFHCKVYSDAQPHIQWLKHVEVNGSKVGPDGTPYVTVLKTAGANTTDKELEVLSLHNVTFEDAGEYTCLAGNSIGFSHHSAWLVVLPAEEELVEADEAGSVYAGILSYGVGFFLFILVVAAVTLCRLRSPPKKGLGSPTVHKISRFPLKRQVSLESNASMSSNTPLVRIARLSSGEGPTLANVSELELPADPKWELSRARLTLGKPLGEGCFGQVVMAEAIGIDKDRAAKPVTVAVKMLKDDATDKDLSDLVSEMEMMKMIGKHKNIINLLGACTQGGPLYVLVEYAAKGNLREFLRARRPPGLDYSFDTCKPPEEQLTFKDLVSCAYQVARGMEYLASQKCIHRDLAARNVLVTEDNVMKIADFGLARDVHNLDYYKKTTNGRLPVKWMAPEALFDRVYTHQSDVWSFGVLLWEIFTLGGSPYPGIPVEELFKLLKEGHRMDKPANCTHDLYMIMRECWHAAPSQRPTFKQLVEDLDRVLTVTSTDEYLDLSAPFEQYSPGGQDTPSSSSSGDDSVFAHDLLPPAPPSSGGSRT
# c-Src = assay: as above
# Fes = Fes (UniProt P07332); assay: as above
# Sequence of Fes (P07332 whole entry, looked up): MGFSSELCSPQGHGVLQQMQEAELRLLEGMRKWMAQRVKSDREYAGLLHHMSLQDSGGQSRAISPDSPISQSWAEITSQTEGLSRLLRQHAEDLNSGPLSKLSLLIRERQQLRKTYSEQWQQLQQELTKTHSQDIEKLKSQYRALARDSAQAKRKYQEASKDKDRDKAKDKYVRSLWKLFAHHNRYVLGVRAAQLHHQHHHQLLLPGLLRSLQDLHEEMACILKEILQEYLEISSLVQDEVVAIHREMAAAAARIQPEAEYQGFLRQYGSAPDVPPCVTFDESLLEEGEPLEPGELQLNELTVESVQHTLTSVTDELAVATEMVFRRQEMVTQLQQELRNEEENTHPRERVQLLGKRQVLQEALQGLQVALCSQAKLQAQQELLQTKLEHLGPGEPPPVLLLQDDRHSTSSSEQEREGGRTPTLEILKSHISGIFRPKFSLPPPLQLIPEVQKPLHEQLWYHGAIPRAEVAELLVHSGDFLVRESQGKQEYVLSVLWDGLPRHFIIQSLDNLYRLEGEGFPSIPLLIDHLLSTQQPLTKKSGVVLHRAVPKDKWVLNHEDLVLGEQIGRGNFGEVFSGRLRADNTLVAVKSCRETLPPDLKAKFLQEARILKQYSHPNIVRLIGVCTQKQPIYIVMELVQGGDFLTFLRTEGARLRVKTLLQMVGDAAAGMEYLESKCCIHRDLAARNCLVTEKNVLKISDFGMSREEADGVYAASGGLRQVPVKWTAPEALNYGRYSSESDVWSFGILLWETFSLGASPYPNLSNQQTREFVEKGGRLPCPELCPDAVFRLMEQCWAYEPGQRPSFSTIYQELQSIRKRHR
# FGFR1 = FGFR1 (UniProt P11362); assay: as above
# Sequence of FGFR1 (P11362 whole entry, looked up): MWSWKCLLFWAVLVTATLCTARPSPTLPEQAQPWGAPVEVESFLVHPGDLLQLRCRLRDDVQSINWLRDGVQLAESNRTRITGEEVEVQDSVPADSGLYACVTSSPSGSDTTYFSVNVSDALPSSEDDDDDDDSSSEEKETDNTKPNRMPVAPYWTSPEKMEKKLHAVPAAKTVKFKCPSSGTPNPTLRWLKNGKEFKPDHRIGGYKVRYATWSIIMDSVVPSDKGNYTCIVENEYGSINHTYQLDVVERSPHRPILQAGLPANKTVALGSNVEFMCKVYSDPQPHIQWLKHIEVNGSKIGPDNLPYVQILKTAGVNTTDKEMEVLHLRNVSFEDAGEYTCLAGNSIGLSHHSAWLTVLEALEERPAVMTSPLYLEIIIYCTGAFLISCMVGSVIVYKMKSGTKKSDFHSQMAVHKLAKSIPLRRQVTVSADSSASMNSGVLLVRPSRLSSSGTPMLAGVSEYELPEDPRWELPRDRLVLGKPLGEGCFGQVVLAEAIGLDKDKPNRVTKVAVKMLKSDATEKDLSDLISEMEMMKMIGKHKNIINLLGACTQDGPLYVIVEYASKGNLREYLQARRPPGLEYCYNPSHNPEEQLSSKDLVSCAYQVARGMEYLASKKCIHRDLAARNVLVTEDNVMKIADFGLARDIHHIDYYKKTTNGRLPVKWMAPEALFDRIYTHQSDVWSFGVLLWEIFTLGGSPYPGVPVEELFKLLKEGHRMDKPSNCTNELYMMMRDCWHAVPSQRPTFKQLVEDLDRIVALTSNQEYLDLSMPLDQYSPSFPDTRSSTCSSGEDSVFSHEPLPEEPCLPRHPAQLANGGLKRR
# MERTK = MERTK (UniProt Q12866); assay: as above
# Sequence of MERTK (Q12866 whole entry, looked up): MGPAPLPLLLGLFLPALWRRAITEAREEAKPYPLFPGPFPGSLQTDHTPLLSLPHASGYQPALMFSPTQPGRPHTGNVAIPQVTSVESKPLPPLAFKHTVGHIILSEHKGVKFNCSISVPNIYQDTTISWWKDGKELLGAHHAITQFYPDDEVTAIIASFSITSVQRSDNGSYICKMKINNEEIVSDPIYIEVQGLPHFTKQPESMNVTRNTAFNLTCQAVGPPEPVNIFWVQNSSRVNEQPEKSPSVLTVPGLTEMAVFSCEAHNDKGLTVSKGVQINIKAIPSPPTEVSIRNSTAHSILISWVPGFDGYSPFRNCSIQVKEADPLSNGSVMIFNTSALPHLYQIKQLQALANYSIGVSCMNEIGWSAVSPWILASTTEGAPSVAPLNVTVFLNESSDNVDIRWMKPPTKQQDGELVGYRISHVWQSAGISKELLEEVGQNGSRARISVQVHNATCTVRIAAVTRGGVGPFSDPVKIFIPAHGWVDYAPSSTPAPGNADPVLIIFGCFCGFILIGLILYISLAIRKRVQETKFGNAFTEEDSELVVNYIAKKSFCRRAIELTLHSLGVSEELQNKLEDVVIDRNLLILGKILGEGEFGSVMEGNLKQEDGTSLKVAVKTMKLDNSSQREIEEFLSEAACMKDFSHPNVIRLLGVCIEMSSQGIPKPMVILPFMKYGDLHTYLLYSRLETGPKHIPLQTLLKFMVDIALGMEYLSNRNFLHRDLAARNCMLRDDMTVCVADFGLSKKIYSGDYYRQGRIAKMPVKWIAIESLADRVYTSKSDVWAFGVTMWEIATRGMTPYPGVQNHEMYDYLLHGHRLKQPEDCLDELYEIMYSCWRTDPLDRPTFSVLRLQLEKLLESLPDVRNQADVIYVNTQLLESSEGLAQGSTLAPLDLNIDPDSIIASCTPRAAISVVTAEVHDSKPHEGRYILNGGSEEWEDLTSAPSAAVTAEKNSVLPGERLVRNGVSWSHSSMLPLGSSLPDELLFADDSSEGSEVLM
# c-Abl (mouse) = assay: as above
# AncSZ = assay: as above
# Grb2 SH2 = Grb2 SH2 (UniProt P62993); assay: SH2 binding enrichment of the phosphorylated peptide, bacterial display (enrichment ratio); higher = better substrate or ligand; peptides without Tyr show the background
# c-Src SH2 = assay: as above
# SHP2-C SH2 = assay: as above
# 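For SH2 binding enrichment of the phosphorylated peptide, bacterial display in this document: peptide library displayed on the E. coli surface as eCPX fusions, selected cells deep-sequenced, score is each peptide's frequency after selection divided by its frequency in the input.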
# 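For phosphorylation enrichment, bacterial display in this document: 11-residue human phosphosite peptides and single-mutation variants displayed on the E. coli surface, counted by deep sequencing, each peptide's frequency after selection divided by its frequency in the unselected input library; frequency after pTyr selection over input frequency; kinase dosed for 20-30% of maximal phosphorylation in three min.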
SH2 binding enrichment (Grb2 SH2),SH2 binding enrichment (c-Src SH2),SH2 binding enrichment (SHP2-C SH2),Sequence,phosphorylation enrichment (Hck),phosphorylation enrichment (Fer (mouse)),phosphorylation enrichment (Jak2),phosphorylation enrichment (EPHB2),phosphorylation enrichment (Fyn),phosphorylation enrichment (EPHB1),phosphorylation enrichment (FGFR3),phosphorylation enrichment (c-Src),phosphorylation enrichment (Fes),phosphorylation enrichment (FGFR1),phosphorylation enrichment (MERTK),phosphorylation enrichment (c-Abl (mouse)),phosphorylation enrichment (AncSZ)
0.917,0.459,0.736,PLFSKYWPNHI [GREB1L_Y1560_R1558S_YF],0.801,0.907,0.933,0.925,0.805,1,0.724,1.38,1.33,0.823,1.13,1.47,2.32
1.18,2.46,0.91,GAMGHYVLAER [HFE_Y342],0.44,0.453,0.511,0.403,0.41,0.387,0.446,0.437,0.659,0.38,0.452,0.505,0.643
0.734,0.546,0.586,NSGFFYKTAEE [CCT6B_Y250],0.445,0.486,1.44,0.722,0.462,0.655,0.74,0.476,1.41,0.556,0.435,0.888,1.31
0.767,0.451,0.413,VAVVQYSGTGQ [COL6A1_Y878],0.438,0.387,0.576,0.463,0.357,0.479,0.564,0.451,0.71,0.487,0.412,0.592,0.517
1.16,0.636,0.845,KLGDVYVNVAF [PGK1_Y161_D164V],0.706,0.661,0.965,0.632,0.645,0.801,1.01,0.584,1.08,1.01,0.471,0.727,1.13
0.702,0.414,0.41,FDEFRYRSFIK [CFTR_Y517_V520F_YF],0.511,0.556,0.497,0.39,0.467,0.417,0.526,0.419,0.764,0.498,0.422,0.454,0.775

# Further lines, the sequence ahead of its results:
Sequence,SH2 binding enrichment (Grb2 SH2),SH2 binding enrichment (c-Src SH2),SH2 binding enrichment (SHP2-C SH2),phosphorylation enrichment (Hck),phosphorylation enrichment (Fer (mouse)),phosphorylation enrichment (Jak2),phosphorylation enrichment (EPHB2),phosphorylation enrichment (Fyn),phosphorylation enrichment (EPHB1),phosphorylation enrichment (FGFR3),phosphorylation enrichment (c-Src),phosphorylation enrichment (Fes),phosphorylation enrichment (FGFR1),phosphorylation enrichment (MERTK),phosphorylation enrichment (c-Abl (mouse)),phosphorylation enrichment (AncSZ)
TVDASYFGGRG [ANTXR2_Y380_YF],1.01,0.474,0.513,0.425,0.312,0.677,0.337,0.403,0.333,0.394,0.413,0.567,0.372,0.438,0.519,0.569
WKEIEYEVVPD [CPS1_Y634_R638P],0.837,0.48,0.861,0.559,0.554,1.18,0.961,0.483,0.636,0.774,0.479,1.18,0.7,0.494,0.639,1.43
YYHCTYKQRMI [CLEC12A_Y242_K244Q],1.41,1.41,0.953,1.1,0.452,1.73,0.527,0.693,0.63,7.01,0.773,1.01,9.07,3.68,1.4,1.64
EVASVYESYQP [MAVS_Y92_Q93E],0.919,0.727,0.504,6.67,10.1,0.849,1.61,8.41,0.948,0.737,5.67,1.11,0.527,0.71,0.783,1.83
PEACDYGLGGG [GSTO1_Y239],0.912,0.693,0.559,0.739,0.656,1.11,0.887,0.691,1.38,0.816,1.19,1.34,1.19,0.635,1.28,1.78
QRALLYEDALF [UNC13D_Y56_YF],0.828,0.593,0.573,1.45,16.1,0.867,8.85,1.54,10.4,0.896,1.5,2.16,0.68,4.86,0.878,1.21
MSSHHYDFKKF [ZNF445_Y428_YF],0.784,0.485,0.544,0.362,0.308,0.382,0.311,0.384,0.533,0.346,0.415,0.462,0.339,0.376,0.39,0.466
RALCHYYKLNI [ETV6_Y401_R399C],1.74,1.45,1.23,1.59,1.29,6.35,1.16,0.947,1.09,5.19,2.63,1.99,9.12,3.95,2.78,1.88
SLLTDYSPQLQ [OTC_Y345],0.708,0.517,0.918,0.48,0.453,0.788,0.508,0.45,0.459,0.546,0.372,0.796,0.447,0.381,0.483,0.776
IFCIQYNICAF [MYH4_Y820_R823C],1.7,1.21,1.47,0.45,0.538,1.56,0.9,0.421,0.686,0.807,0.513,1.53,0.451,0.421,1.14,1.28
